The values below come from patent publication US20240052042A1 (Novartis, published 2024).

Assay [1] concerns the target T1, human NPR1 on CHO-K1 cells (human, UniProt P16066 33-1061).
T1 sequence: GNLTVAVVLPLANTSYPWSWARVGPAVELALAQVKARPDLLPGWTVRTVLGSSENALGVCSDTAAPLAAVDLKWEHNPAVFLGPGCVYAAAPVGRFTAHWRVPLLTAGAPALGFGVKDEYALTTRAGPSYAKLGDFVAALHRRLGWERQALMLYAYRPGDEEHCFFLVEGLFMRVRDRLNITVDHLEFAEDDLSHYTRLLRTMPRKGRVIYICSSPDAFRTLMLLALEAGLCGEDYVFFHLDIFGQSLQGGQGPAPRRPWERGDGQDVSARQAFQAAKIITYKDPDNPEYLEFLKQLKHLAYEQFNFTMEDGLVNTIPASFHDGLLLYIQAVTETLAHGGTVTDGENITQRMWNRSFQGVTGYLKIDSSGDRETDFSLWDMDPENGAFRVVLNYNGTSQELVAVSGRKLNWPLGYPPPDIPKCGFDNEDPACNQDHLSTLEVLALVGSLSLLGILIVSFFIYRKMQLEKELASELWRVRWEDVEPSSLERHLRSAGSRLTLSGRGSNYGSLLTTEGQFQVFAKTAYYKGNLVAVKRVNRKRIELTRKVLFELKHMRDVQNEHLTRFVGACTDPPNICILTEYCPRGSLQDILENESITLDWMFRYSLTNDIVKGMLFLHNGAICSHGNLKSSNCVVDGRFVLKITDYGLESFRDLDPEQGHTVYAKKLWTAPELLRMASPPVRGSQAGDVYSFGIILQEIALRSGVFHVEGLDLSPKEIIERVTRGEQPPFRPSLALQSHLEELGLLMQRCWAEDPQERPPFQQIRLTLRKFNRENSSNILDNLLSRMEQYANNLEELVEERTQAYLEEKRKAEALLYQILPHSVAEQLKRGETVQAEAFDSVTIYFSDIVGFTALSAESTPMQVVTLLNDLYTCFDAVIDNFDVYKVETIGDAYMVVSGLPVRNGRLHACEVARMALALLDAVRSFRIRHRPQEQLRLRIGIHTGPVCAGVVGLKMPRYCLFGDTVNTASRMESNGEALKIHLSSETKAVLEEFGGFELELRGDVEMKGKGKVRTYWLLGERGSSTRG
Briefly: cell-based or functional assay.

Assay [2] concerns the target T2, rNPR1-ANP complex (rat, UniProt P01160 124-151 (human entry), limits assumed).
T2 construct: rNPR1 antigen in the presence of ANP; also called rNPR1 + 100 nM ANP
T2 sequence: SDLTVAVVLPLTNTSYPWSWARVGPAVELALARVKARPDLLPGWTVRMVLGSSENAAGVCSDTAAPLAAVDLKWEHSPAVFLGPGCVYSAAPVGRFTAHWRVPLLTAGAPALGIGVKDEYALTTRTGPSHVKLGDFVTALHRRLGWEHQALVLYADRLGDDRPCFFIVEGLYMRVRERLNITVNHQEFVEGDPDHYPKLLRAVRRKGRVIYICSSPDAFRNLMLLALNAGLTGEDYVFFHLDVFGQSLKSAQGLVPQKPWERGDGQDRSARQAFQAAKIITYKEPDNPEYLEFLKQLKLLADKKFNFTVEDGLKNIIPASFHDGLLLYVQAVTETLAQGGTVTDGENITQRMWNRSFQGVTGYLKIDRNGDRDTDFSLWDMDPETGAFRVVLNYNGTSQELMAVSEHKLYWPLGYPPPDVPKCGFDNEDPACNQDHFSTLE
T2 sequence (peptide): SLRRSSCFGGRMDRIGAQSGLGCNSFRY
Kind of assay: SET, FabCys.

Assay [3] deals with T3, human Natriuretic Peptide Receptor 1 (hNPR1) (human, UniProt P16066 33-473, limits assumed).
T3 construct: pannings used NPR1-hFc; also called NPR1-hFc
T3 sequence: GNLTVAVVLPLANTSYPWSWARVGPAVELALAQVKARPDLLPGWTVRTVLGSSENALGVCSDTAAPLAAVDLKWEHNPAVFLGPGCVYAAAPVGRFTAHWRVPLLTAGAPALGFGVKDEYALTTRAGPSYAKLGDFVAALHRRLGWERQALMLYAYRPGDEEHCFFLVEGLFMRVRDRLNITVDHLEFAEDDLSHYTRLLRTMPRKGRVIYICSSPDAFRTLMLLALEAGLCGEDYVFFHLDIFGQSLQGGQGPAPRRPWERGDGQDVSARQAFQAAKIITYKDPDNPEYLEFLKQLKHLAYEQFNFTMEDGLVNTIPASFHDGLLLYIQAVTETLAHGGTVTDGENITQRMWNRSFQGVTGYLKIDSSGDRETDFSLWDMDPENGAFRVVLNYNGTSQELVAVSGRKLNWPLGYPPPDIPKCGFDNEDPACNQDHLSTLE
Briefly: SET, FabCys.

The target in assay [4] is T4, rat NPR1 (rNPR1) (rat, UniProt P18910 29-469, limits assumed).
T4 construct: Soluble antigen
T4 sequence: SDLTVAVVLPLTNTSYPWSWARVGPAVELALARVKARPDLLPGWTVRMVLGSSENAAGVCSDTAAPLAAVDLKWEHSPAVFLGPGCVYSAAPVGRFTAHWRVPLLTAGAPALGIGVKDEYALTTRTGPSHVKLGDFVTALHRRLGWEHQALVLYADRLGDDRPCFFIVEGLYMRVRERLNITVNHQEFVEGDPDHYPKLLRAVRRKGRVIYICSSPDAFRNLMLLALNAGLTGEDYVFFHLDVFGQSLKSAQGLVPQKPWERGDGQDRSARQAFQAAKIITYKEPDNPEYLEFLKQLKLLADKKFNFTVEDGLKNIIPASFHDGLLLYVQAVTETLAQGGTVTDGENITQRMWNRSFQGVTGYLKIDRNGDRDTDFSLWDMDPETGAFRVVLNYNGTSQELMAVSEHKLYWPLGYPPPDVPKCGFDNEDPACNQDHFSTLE
Briefly: SET, FabCys.

Assay [5] has as its target T5, hNPR1-ANP complex (human, UniProt P01160 124-151, limits assumed).
T5 construct: hNPR1 antigen in the presence of ANP; also called hNPR1 + 100 nM ANP
T5 sequence: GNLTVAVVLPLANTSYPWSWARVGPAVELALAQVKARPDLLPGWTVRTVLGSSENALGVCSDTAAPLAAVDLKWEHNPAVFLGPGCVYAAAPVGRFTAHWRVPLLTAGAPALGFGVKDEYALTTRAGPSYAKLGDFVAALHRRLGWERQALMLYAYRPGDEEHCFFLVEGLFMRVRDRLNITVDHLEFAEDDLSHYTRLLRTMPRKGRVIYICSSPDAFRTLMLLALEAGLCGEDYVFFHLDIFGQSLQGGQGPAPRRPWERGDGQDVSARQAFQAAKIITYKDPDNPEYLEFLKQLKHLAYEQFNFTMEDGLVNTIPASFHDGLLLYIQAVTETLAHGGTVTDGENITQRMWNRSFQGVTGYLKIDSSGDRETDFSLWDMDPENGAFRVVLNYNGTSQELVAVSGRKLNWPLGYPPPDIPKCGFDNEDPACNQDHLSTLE
T5 sequence (peptide): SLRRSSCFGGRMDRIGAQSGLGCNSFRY
Kind of assay: SET, FabCys.

In assay [6] the target is T4, rat NPR1 (rNPR1). Briefly: SET, FabCys. This is another data set of the same source.

Bounds are passed on as bounds.

B1: WW06 (FabCys format) (Fab, V domains shown)
VH: QVQLVQSGAEVKKPGESLKISCKGSGYSFTSYWIAWVRQMPGKGLEWMGRIDPDNSYTRYSPSFQGQVTISADKSISTAYLQWSSLKASDTAMYYCARWLSPGYALGEQPAGMDHWGQGTLVTVSS
VL: DIVLTQPPSVSGAPGQRVTISCTGSSSNIGAGYAVHWYQQLPGTAPKLLIYSNNKRPSGVPDRFSGSKSGTSASLAITGLQAEDEADYYCQSYDLQKSSRVFGGGTKLTVL
As to B1, in assay [1], the “cGMP conc [nM] at 2 µM FabCys, +0.075 nM ANP” value worked out at 251 nM and the “cGMP conc [nM] at 2 µM FabCys, without ANP” value amounted to 281 nM.

B2: XX01 (FabCys format) (Fab, V domains shown)
VH: EVQLLESGGGLVQPGGSLRLSCAASGFTFNTHYIHWVRQAPGKGLEWVSSISSSGQSTYYADSVKGRFTISRDNSKNTLYLQMNSLRAEDTAVYYCARERGYVYYHMFDPWGQGTLVTVSS
VL: DIVLTQSPATLSLSPGERATLSCRASQSITRNYLAWYQQKPGQAPRLLIYGASSRATGIPARFSGSGSGTDFTLTISSLEPEDFAVYYCQQHSMYPRTFGQGTKVEIK
notes: Monovalent FabCys
On to B2, for which the Kd stood at 0.5 nM in assay [2], 43 nM in assay [3], 1.4 nM in assay [4] and 0.3 nM in assay [5]. For the same molecule, the “rat/human KD ratio” value in assay [6] is < 5.

B3: XX08 (FabCys format) (Fab, V domains shown)
VH: EVQLLESGGGLVQPGGSLRLSCAASGFTFNTHYIHWVRQAPGKGLEWVSSIGGQGGMTLYADSVKGRFTISRDNSKNTLYLQMNSLRAEDTAVYYCARERGYVYYHMFDPWGQGTLVTVSS
VL: DIVLTQSPATLSLSPGERATLSCRASQSITRNYLAWYQQKPGQAPRLLIYGASSRATGIPARFSGSGSGTDFTLTISSLEPEDFAVYYCQQHSMYPRTFGQGTKVEIK
notes: Monovalent FabCys
Regarding B3, the Kd in assay [2] is 0.2 nM; in assay [3], 46 nM; in assay [4], 1.8 nM; in assay [5] it was 0.3 nM. The “rat/human KD ratio” value in assay [6] is < 5.

B4: XX04 (FabCys format) (Fab, V domains shown)
VH: QVQLLESGGGLVQPGGSLRLSCAASGFTFSSYWMNWVRQAPGKGLEWVSAISSDGSYTYYADSVKGRFTISRDNSKNTLYLQMNSLRAEDTAVYYCARDRYSMIYSYGAGAFDYWGQGTLVTVSS
VL: DIQMTQSPSSLSASVGDRVTITCRASQGISSYLAWYQQKPGKAPKLLIYTASTLQSGVPSRFSGSGSGTDFTLTISSLQPEDFATYYCQQEWVKPRTFGQGTKVEIK
notes: Monovalent FabCys
As for B4, the Kd was determined as 0.3 nM in assay [2], 32 nM in assay [3], 3.3 nM in assay [4] and 0.1 nM in assay [5]. In assay [6], the “rat/human KD ratio” value was < 5.

B5: XX12 (FabCys format) (Fab, V domains shown)
VH: QVQLLESGGGLVQPGGSLRLSCAASGFTFSSYWMNWVRQAPGKGLEWVSAISSDGSYTYYADSVKGRFTISRDNSKNTLYLQMNSLRAEDTAVYYCARDRYSMIYSYGAGAFDYWGQGTLVTVSS
VL: DIQMTQSPSSLSASVGDRVTITCRASQGISSYLAWYQQKPGKAPKLLIYTASTLQSGVPSRFSGSGSGTDFTLTISSLQPEDFATYYCQQIWMAPRTFGQGTKVEIK
notes: Monovalent FabCys
Regarding B5, the equilibrium dissociation constant (Kd) was 0.5 nM in assay [2], 16 nM in assay [3], 3 nM in assay [4] and 0.2 nM in assay [5]. In assay [6], the “rat/human KD ratio” value is < 5.

B6: XX06 (FabCys format) (Fab, V domains shown)
VH: QVQLLESGGGLVQPGGSLRLSCAASGFTFSSYWMNWVRQAPGKGLEWVSAISSDGSYTYYADSVKGRFTISRDNSKNTLYLQMNSLRAEDTAVYYCARDRYSMIYSYGAGAFDYWGQGTLVTVSS
VL: DIQMTQSPSSLSASVGDRVTITCRASQGISSYLAWYQQKPGKAPKLLIYTASTLQSGVPSRFSGSGSGTDFTLTISSLQPEDFATYYCQQTWRKPRTFGQGTKVEIK
notes: Monovalent FabCys
On to B6, for which the dissociation constant Kd in assay [2] turned out to be 0.3 nM; in assay [3] it was 10 nM; in assay [4], 2.3 nM; in assay [5], 0.1 nM. Moreover, the “rat/human KD ratio” value in assay [6] was < 5.

B7: XX03 (FabCys format) (Fab, V domains shown)
VH: EVQLLESGGGLVQPGGSLRLSCAASGFTFSSYWMNWVRQAPGKGLEWVSVIESKGNYIFYADSVKGRFTISRDNSKNTLYLQMNSLRAEDTAVYYCARDRYSMIYSYGAGAFDYWGQGTLVTVSS
VL: DIQMTQSPSSLSASVGDRVTITCRASQGISSYLAWYQQKPGKAPKLLIYTASTLQSGVPSRFSGSGSGTDFTLTISSLQPEDFATYYCMQSYEKPRTFGQGTKVEIK
notes: Monovalent FabCys
On to B7, for which the Kd in assay [2] is 0.1 nM; in assay [3] it was 22 nM; in assay [4], 1.1 nM; in assay [5] it was 0.2 nM. Further, in assay [6], the “rat/human KD ratio” value was < 5.

B8: XX07 (FabCys format) (Fab, V domains shown)
VH: QVQLLESGGGLVQPGGSLRLSCAASGFTFSSYWMNWVRQAPGKGLEWVSAISSDGSYTYYADSVKGRFTISRDNSKNTLYLQMNSLRAEDTAVYYCARDRYSMIYSYGAGAFDYWGQGTLVTVSS
VL: DIQMTQSPSSLSASVGDRVTITCRASQGISSYLAWYQQKPGKAPKLLIYTASTLQSGVPSRFSGSGSGTDFTLTISSLQPEDFATYYCQQIWTVPRTFGQGTKVEIK
notes: Monovalent FabCys
On to B8, for which the Kd in assay [2] worked out at 0.5 nM; in assay [3] it was 21 nM; in assay [4] it was 2.9 nM; in assay [5], 0.2 nM. The “rat/human KD ratio” value in assay [6] is < 5.
